Tests used:
Assay in all cases: purified protein
[1] = substrate: NC(=O)c1ccc[n+]([C@@H]2O[C@H](COP(=O)(O)OP(=O)(O)OC[C@H]3O[C@@H](n4cnc5c(N)ncnc54)[C@H](O)[C@@H]3O)[C@@H](O)[C@H]2O)c1; format: biochemical, Chlorobaculum tepidum; conditions: reduced methylviologen as donor, pH 8.0, 40°C
[2] = substrate: NC(=O)C1=CN([C@@H]2O[C@H](COP(=O)(O)OP(=O)(O)OC[C@H]3O[C@@H](n4cnc5c(N)ncnc54)[C@H](O)[C@@H]3O)[C@@H](O)[C@H]2O)C=CC1; format: biochemical, Chlorobaculum tepidum; conditions: 300 μM MTT, 50 mM potassium phosphate pH 8.0, 40°C
[3] = substrate: NC(=O)C1=CN([C@@H]2O[C@H](COP(=O)(O)OP(=O)(O)OC[C@H]3O[C@@H](n4cnc5c(N)ncnc54)[C@H](OP(=O)(O)O)[C@@H]3O)[C@@H](O)[C@H]2O)C=CC1; format: biochemical, Desulfurella amilsii; conditions: 300 μM MTT, 50 mM potassium phosphate pH 6.5, 45°C
[4] = substrate: NC(=O)c1ccc[n+]([C@@H]2O[C@H](COP(=O)(O)OP(=O)(O)OC[C@H]3O[C@@H](n4cnc5c(N)ncnc54)[C@H](OP(=O)(O)O)[C@@H]3O)[C@@H](O)[C@H]2O)c1; format: biochemical, Desulfurella amilsii; conditions: reduced methylviologen as donor, pH 6.5, 45°C
[5] = substrate: NC(=O)C1=CN([C@@H]2O[C@H](COP(=O)(O)OP(=O)(O)OC[C@H]3O[C@@H](n4cnc5c(N)ncnc54)[C@H](OP(=O)(O)O)[C@@H]3O)[C@@H](O)[C@H]2O)C=CC1; format: biochemical, Allochromatium vinosum; conditions: 300 μM MTT, 50 mM potassium phosphate pH 7.0, 30°C
[6] = substrate: NC(=O)c1ccc[n+]([C@@H]2O[C@H](COP(=O)(O)OP(=O)(O)OC[C@H]3O[C@@H](n4cnc5c(N)ncnc54)[C@H](O)[C@@H]3O)[C@@H](O)[C@H]2O)c1; format: biochemical, Allochromatium vinosum; conditions: reduced methylviologen as donor, pH 7.0, 30°C
[7] = substrate: NC(=O)c1ccc[n+]([C@@H]2O[C@H](COP(=O)(O)OP(=O)(O)OC[C@H]3O[C@@H](n4cnc5c(N)ncnc54)[C@H](OP(=O)(O)O)[C@@H]3O)[C@@H](O)[C@H]2O)c1; format: biochemical, Allochromatium vinosum; conditions: reduced methylviologen as donor, pH 7.0, 30°C
[8] = substrate: NC(=O)C1=CN([C@@H]2O[C@H](COP(=O)(O)OP(=O)(O)OC[C@H]3O[C@@H](n4cnc5c(N)ncnc54)[C@H](O)[C@@H]3O)[C@@H](O)[C@H]2O)C=CC1; format: biochemical, Allochromatium vinosum; conditions: 300 μM MTT, 50 mM potassium phosphate pH 7.0, 30°C

B1: CtDsrL-1B (Chlorobaculum tepidum TLS) (protein)
chain: MNAESNPILDFATEYVYPAFSELTGTDKIVAFGDHSHKCPIYVPQTPPCTAECPAGEDIRAINRFLNGTDPSDDPLKSAWETATDTNPFPAVMGRICPHPCQSKCNRGVHDESVAINAVEQVLGNYGIEHNLKLKGPGADTGKRVAIIGGGPAGLSAAYQLRRKGHAVTIYDANEKLGGMVLYGIMGYRVDRKVLEAEIGRIIELGVETKMGVTIGKDITLEQLEAEYDAVFIAVGAQKGRALPVPGFEGTPGATNAIDFLKSYEVLGDDIPVGKHVVVIGDGNVAMDVARLALRLGSQATIISGVPREEMACFENEFDDAKNEGTTMHFLTGTVEVLGGASGVTGLRCTKMVKKEKGEEGWNSPIPFLRYKSNGESFEIEADMVVAAIGQATDLSGLGSAASGPWLKVDRNFRIPGREKLFGGGDALKVDLITTAVGHGRKAAYAIDAFLKGEPMPEEPYREITKPHKQDLLYFLHTPQAKRTSIKPEVVVGNHDELLEALTPEQAITESKRCMSCGFCFDCKQCVSFCPQEAITRFRDNPAGEKVYTDYTKCVGCHLCSLVCPCGYIQMGMGDGL
notes: full length (577 residues), C-terminal Strep-tag (… from primer), E. coli BL21(DE3) ΔiscR; primer-coded N-term MNAESNP, C-term GMGDGL
B1 was tested, and the Km [1] was 95.2 ± 9.9 µM, the Vmax [1] was 366 µmol/min/mg and the kcat [1] was 387 s⁻¹. The kcat/Km [1] was 4.06e+06 M⁻¹ s⁻¹, the Km [2] was 267.5 ± 20.5 µM and the Vmax [2] was 436 µmol/min/mg. The kcat [2] was 460 s⁻¹ and the kcat/Km [2] was 1.72e+06 M⁻¹ s⁻¹.

B2: DaDsrL-2 (Desulfurella amilsii) (protein)
chain: MAVVKVKKSIKSFSKPSGTEYSSDRPIYVEKRPPCSDTCPNGEQVREFLQYIAQAQDYGRTYEEALEGAFYIIAQTNSMPATTGRICPHPCESRCNRKDKDSAVNINASEMFIGDFAVQNKLPLKKLDETYDAKVAVIGSGPSGLSCAYHLARRGVKVTIFEKEEKPGGLLYYGIPNFRLPKEIVSAEIQRIVDLGVDIKYGKAVGKDIGIEDLKKEFDCIYVATGAYKPEKPNLENIDNIKGVYSGLEFLYHFAKGERIDIGKDVVVVGADTAADAAMISKRWGANVTFAYRRTVPDKETFDKKASREAIDAYEEGITFQFATVPVELVSENGKLTGVKFQKIKVGAKDERGHAAQVENIGEPFLVKADAFIYSVGQKPDYSGLEKLLGQSEGFVKIKDNYQVEGQDKVFAGGDVVGPRLMYVTTAIGHGFAAAVNMIEYLTGKKVIEKDTRKVIESDKMHLDLYEAKPRHERKLRDPIERIKDFEPFMNGLSMEEFIEEAKRCMSCGLCFDCGNCFTYCSHSGVKKLPKGQHYEFHLETCDGCMKCFENCPCGYIEKM
notes: full length, C-terminal Strep-tag (… from primer), E. coli BL21(DE3) ΔiscR; primer-coded N-term MAVVKVK, C-term PCGYIEKM; contains YRR motif
B2 was tested, and the Km [3] was 124.5 ± 10.5 µM, the Vmax [3] was 103 µmol/min/mg and the kcat [3] was 110 s⁻¹. It also gave a kcat/Km [3] of 870000 M⁻¹ s⁻¹, a Km [4] of 22.0 ± 1.9 µM and a Vmax [4] of 88.8 µmol/min/mg. The kcat [4] was 94.3 s⁻¹ and the kcat/Km [4] was 4.2e+06 M⁻¹ s⁻¹.

B3: AvDsrL-1A (Allochromatium vinosum DSM 180) (protein)
chain: MATSSDEMKMKPTWRRFEDGEHVWDNLTDKIFNQDRSHKCPTYVHKTPPCQGSCPSGEDIRGWLQIVRGMEKPPQGMDWQEYAFRRSTDANPFPAMMGRVCPAPCQDGCNRNELEDFVGINSVEQFIGDTAIANGYTFEAPELDTGKRIAIVGGGPAGLAAAYQLRRKGHSCTIFEANDGLGGMFRFGIPGYRVPRDKLDAEIQRILDMGRVEVRLKTRIGTDVTVEQLEKDYDAILWAIGCQSGRGLPVPGWEGTPNCVTGVAFLKAFNEGRMKVTAGKVVCVGGGDTSIDVVSVARRLGHVNKSNPNELPETVIRDGYVAHDAASAAAAQGAEVTLTSLFTRDKMTASEHEVDDATREGVTILDGVMPVEVIKDANGRAIGLKVADCTMTDGRPTPVEGTERVLEADLIVSAIGQGGDLSGLEQLDNGRGLMDSDKFYQVPGKAGHFVAGDIIRPHLLTTAIGQAWIAADSIDAYVMQAEHKRRPKVDVHHFNLLDKLTEAHLAPESFVAGQAGDMRGTSDANYAIHNYEDRSGAEVIPHEELFLGHFNYVPRNLRKEEVPSADEVLGHFHERVIGLTEPEAIDEAKRCMSCGLCFECDNCVIFCPQDAVFRVDKGSRTTGRYVDTDYAKCIGCHICADVCPTGYIKMGLGE
notes: full length, C-terminal Strep-tag (… from primer), E. coli BL21(DE3) ΔiscR; primer-coded N-term MATSS, C-term IKMGLGE; FAD and four [4Fe-4S] per monomer; homodimer
For B3, the Km [5] was 1667.0 ± 230.2 µM, the Vmax [5] was 4 µmol/min/mg and the kcat [5] was 4.9 s⁻¹. It also gave a kcat/Km [5] of 3000 M⁻¹ s⁻¹, a Km [6] of 123.9 ± 10.3 µM and a Vmax [6] of 145 µmol/min/mg. The kcat [6] was 176 s⁻¹, the kcat/Km [6] was 1.42e+06 M⁻¹ s⁻¹ and the Km [7] was 2563.0 ± 272.1 µM. It also gave a Vmax [7] of 120 µmol/min/mg, a kcat [7] of 146 s⁻¹ and a kcat/Km [7] of 57000 M⁻¹ s⁻¹. For the same protein, the Km [8] was 86.7 ± 17.0 µM, the Vmax [8] was 11.2 µmol/min/mg and the kcat [8] was 13.5 s⁻¹. The kcat/Km [8] was 156000 M⁻¹ s⁻¹.

— paper PMC7596348, “The Iron-Sulfur Flavoprotein DsrL as NAD(P)H:Acceptor Oxidoreductase in Oxidative and Reductive Dissimilatory Sulfur Metabolism” (Frontiers in Microbiology, 2020)
